Reference: patent US20150232562A1 (Ablynx, published 2015)
Values belong to the binder of their own block, whether it stands above or below them.

Legend:
[1] = target: T1, Epidermal Growth Factor Receptor 2 (HER2) (human, UniProt P04626 23-1255); test: FMAT competition on SKBR3 cells, periplasmic extract
T1 construct: whole, on cells; the cell line is named under assay; also called ErbB-2; ERBB2

[2] = target: T2, recombinant human ErbB2/Fc chimera (human, UniProt P04626 23-652); test: SPR (Biacore 3000), periplasmic extract over immobilised rhErbB2-Fc
T2 construct: bought from R&D Systems; also called rhErbB2-Fc; rhErb2-Fc; Fc part of the bought chimera not given; not described

[3] = target: T2, recombinant human ErbB2/Fc chimera; test: SPR (Biacore T100), Nanobody over immobilised rhErbB2-Fc
[4] = target: T2, recombinant human ErbB2/Fc chimera; test: SPR (Biacore 3000), purified Nanobody over immobilised rhErbB2-Fc

B1: 2H4 (VHH)
VHH: EVQLVESGGSLVQPGGSLRLSCAASGFTFDDYAMTWVRQAPGKGLEWVSSINWSGTHTDYTDSVKGRFTISRNNANNTLYLQMNSLKSEDTAVYYCAKNWGDAGTTWFEKSGSAGQGTQVTVSS
notes: C-term myc-His6 tag
% blocking of Herceptin binding [1]: > 90%
koff [2]: 0.00161 s⁻¹

B2: 2B1 (VHH)
VHH: EVQLVESGGSLVQPGGSLRLSCAASGFTFDDYAMTWVRQAPGKGLEWVSSINWSGTHTDYTDSVKGRFTISRNNANNTLYLQMNSLKSDDTAVYYCAKNWGDAGTTWFEKSGSAGPGTQVTVSS
notes: C-term myc-His6 tag
koff [2]: 0.00155 s⁻¹

B3: 2D4 (VHH)
VHH: EVQLVESGGSLVQPGGSLRLSCAASGFTFDDYAMTWVRQAPGKGLEWVSSINWSGTHTDYADSVKGRFTISRNNANNTLYLQMNSLKSDDTAVYYCAKNWGDAGTTWFEKSGSAGPGTQVTVSS
notes: C-term myc-His6 tag
% blocking of Herceptin binding [1]: > 90%
koff [2]: 0.00165 s⁻¹

B6: 2C1 (VHH)
VHH: EVQLVESGGGLVQPGGSLRLSCVASGFSLDDYGMTWVRQAPGKGLEWVSSINWSGTHTDYTDSVKGRFTISRDNAKNTLFLQMNSLTPEDTAVYYCNQGWKIIPTDRRGHGTQVTVSS
notes: C-term myc-His6 tag
koff [2]: 0.00118 s⁻¹

B7: 2C2 (VHH)
VHH: EVQLVESGGGLVQPGGSLRLSCVASGFSLDDYAMTWVRQAPGKGLEWVSSINWSGTHTDYADSVKGRFTISRDNARNTLFLQMNSLTPEDTAIYYCNQGWKILPTDRRGHGTQVTVSS
notes: C-term myc-His6 tag
% blocking of Herceptin binding [1]: > 90%
koff [2]: 0.00412 s⁻¹

B8: 2D5 (VHH)
VHH: EVQLVESGGGLVQPGGSLRLSCVASGFSLDDYGMTWVRQAPGKGLEWVSSINWSGTHTDYADSVKGRFTISRDNAKNTLFLQMNSLRSEDTAVYYCNQGWKIVPTDRGGHGTQVTVSS
notes: C-term myc-His6 tag
% blocking of Herceptin binding [1]: > 90%
koff [2]: 0.0012 s⁻¹

B9: 2F1 (VHH)
VHH: EVQLVESGGGLVQPGGSLRLSCVASGFSLDDYGMTWVRQAPGKELEWISSINWSGTHTDYADSVKGRFTISRDNAKNTLFLQMNSLTPEDTAVYYCNQGWKIVPMDRRGHGTQVTVSS
notes: C-term myc-His6 tag
% blocking of Herceptin binding [1]: > 90%
koff [2]: 0.00177 s⁻¹

B11: 2B3 (VHH)
VHH: EVQLVESGGGLVQPGGSLRLSCVASGFSLDDYGMTWVRQAPGKGLEWVSSINWSGTHTDCADSVKGRFTISRDNAKNTLFLQMNSLTPEDTAVYYCNQGWKIIPTDRRGHGTQVTVSS
notes: C-term myc-His6 tag
% blocking of Herceptin binding [1]: > 90%
koff [2]: 0.00125 s⁻¹

B12: 2B4 (VHH)
VHH: EVQLVESGGGLVQPGGSLRLSCVGSGFSLDDYAMTWVRQAPGKGLEWVSSINWSGTHTDYADSVKGRFTISRDNAKNTLFLQMNSLSPEDTAVYYCNQGWKIRPTIPMGHGTQVTVSS
notes: C-term myc-His6 tag
koff [2]: 0.00277 s⁻¹

B13: 2D1 (VHH)
VHH: EVQLVESGGGLVQPGGSLRLSCVASGFSLDDYGMTWVRQAPGKGLEWVSSINWSGTHTDYADSVKGRFTISRDNAKNTLFLQMNSLSPEDTAVYYCNRGWKILPTNRGSHGTQVTVSS
notes: C-term myc-His6 tag
% blocking of Herceptin binding [1]: > 90%
koff [2]: 0.00127 s⁻¹

B21: 2D3-35GS-2D3 (VHH)
chain: EVQLVESGGSLVQPGGSLRLSCAASGFTFDDYAMSWVRQVPGKGLEWVSSINWSGTHTDYADSVKGRFTISRNNANNTLYLQMNSLKSEDTAVYYCAKNWRDAGTTWFEKSGSAGQGTQVTVSSGGGGSGGGGSGGGGSGGGGSGGGGSGGGGSGGGGSEVQLVESGGSLVQPGGSLRLSCAASGFTFDDYAMSWVRQVPGKGLEWVSSINWSGTHTDYADSVKGRFTISRNNANNTLYLQMNSLKSEDTAVYYCAKNWRDAGTTWFEKSGSAGQGTQVTVSS
notes: bivalent 2D3, 35GS linker; C-term myc-His6 tag
koff [4]: ~0.0001 s⁻¹

The next lines start with the values.

% blocking of Herceptin binding [1]: > 90%
koff [2]: 0.00153 s⁻¹
B4: 2F3 (VHH)
VHH: EVQLVESGGSLVQPGGSLRLSCAASGFTFDDYAMTWVRQAPGKGLEWVSSINWSGTHTDYTGSVKGRFTISRNNANNTLYLQMNSLKSDDTAVYYCAKNWGDAGTTWFEKSGSAGPGTQVTVSS
notes: C-term myc-His6 tag

% blocking of Herceptin binding [1]: > 90%
koff [2]: 0.00157 s⁻¹
B5: 2F5 (VHH)
VHH: EVQLVESGGSLVPPGGSLRLSCAASGFTFDDYAMSWVRQAPGKGLEWVSSINWSGTHTDYTDSVKGRFTISRNNANNTLYLQMNSLKSEDTAVYYCAKNWGDAGTTWFEKSGSAGQGTQVTVSS
notes: C-term myc-His6 tag

% blocking of Herceptin binding [1]: > 90%
koff [2]: 0.00107 s⁻¹
B10: 2F4 (VHH)
VHH: EVQLVESGGGLVQPGGSLRLSCVASGFSLDDYGMTWVRQAPGKGLEWVSSINWSGTHTDYADSVKGRFTISRDNAKNTLFLQMNSLRSEDTAVYYCNQGWKIVPTDRRGHGTQVTVSS
notes: C-term myc-His6 tag

% blocking of Herceptin binding [1]: > 90%
koff [2]: 0.0013 s⁻¹
B14: 2G2 (VHH)
VHH: EVQLVESGGGLVQPGGSLRLSCVASGFSLDDYGMTWVRQAPGKGLEWVSSINWSGTHTDYTDPVKGRFTISRDNAKNTLFLQMNNLTPEDTAVYYCNRGWKIVPTDLGGHGTQVTVSS
notes: C-term myc-His6 tag

% blocking of Herceptin binding [1]: > 90%
koff [2]: 0.00109 s⁻¹
B15: 2H1 (VHH)
VHH: EVQLVESGGGLVQPGGSLRLSCVASGFSLDDYGMTWVRQAPGKGLEWVSSINWSGTHTDYADSVRGRFVISRDNAKNTLFLQMNSLSPEDTAVYYCNQGWKIIPTDRRGHGTQVTVSS
notes: C-term myc-His6 tag

% blocking of Herceptin binding [1]: > 90%
B16: 38C6 (VHH)
VHH: EVQLVESGGGLVQPGGSLRLSCVGSGFSLDDYAMTWVRQAPGKGLEWVSSINWSGTHTDYADSVKGRFTISRDNAKNTLFLQMNSLSPEDTAVYYCNQGWKIRPTIPMGHGTQVTVSS
notes: C-term myc-His6 tag

% blocking of Herceptin binding [1]: > 90%
B17: 17E3 (VHH)
VHH: EVQLVESGGGLVQAGGSLRLSCVASKMTFMRYTMGWYRQAPGKQRDLVASIDSSGGTNYADSVKGRFTISRDNAKNTVYLEMNSLTPEDTAVYYCNQGWKIVPTDRTGHGTQVTVSS
notes: C-term myc-His6 tag

% blocking of Herceptin binding [1]: > 90%
B18: 30H9 (VHH)
VHH: EVQLVESGGSLVQPGGSLRLSCAASGFTFDDYAMTWVRQAPGKGLEWVSSINWSGTHTDYTDSVKGRFTISRNNANNTLYLQMNSLKSEDTAVYYCAKNWGDAGTTWFEKSGSAGQGTQVTVSS
notes: C-term myc-His6 tag

% blocking of Herceptin binding [1]: > 90%
B19: 118N121_A1_4_OK/1-127 (VHH)
VHH: EVQLVESGGGFVQTGGSPRLSCAASGRSFSEYAAAWFRQSPGKERDLVAGIMWDGRSLFYADSVKGRFTISRDNAKNTLHLQMNSLKPEDTAVYYCAYHKTPYTTLELNRPHAFGSWGQGTQVTVSS
notes: C-term myc-His6 tag

Kd [3]: 3.21 nM
koff [3]: 0.000869 s⁻¹
kon [3]: 271000 M⁻¹ s⁻¹
B20: DUMMY-35GS-47D5 (bispecific antibody)
chain: EVQLVESGGGLVQAGGSLRLSCAASGRTFRSYPMGWFRQAPGKEREFVASITGSGGSTYYADSVKGRFTISRDNAKNTVYLQMNSLRPEDTAVYSCAAYIRPDTYLSRDYRKYDYWGQGTQVTVSSGGGGSGGGGSGGGGSGGGGSGGGGSGGGGSGGGGSEVQLVESGGGLVQPGGSLRLSCAASGSIFGFNDMAWYRQAPGKQRELVALISRVGVTSSADSVKGRFTISRVNAKDTVYLQMNSLKPEDTAVYYCYMDQRLDGSTLAYWGQGTQVTVSS
notes: control: dummy Nanobody fused N-terminally to 47D5; C-term myc-His6 tag; also called Dummy-47D5

koff [4]: ~0.001 s⁻¹
B22: 27B7-35GS-2D3 (bispecific antibody)
chain: EVQLVESGGGLVQPGGSLRLSCAASGFTFSSYAMSWVRQAPGKGLEWVSAISSGGGSITTYADSVKGRFTISRDNAKNTLYLQMSSLKPEDTALYYCAKARSSSSYYDFGSWGQGTQVTVSSGGGGSGGGGSGGGGSGGGGSGGGGSGGGGSGGGGSEVQLVESGGSLVQPGGSLRLSCAASGFTFDDYAMSWVRQVPGKGLEWVSSINWSGTHTDYADSVKGRFTISRNNANNTLYLQMNSLKSEDTAVYYCAKNWRDAGTTWFEKSGSAGQGTQVTVSS
notes: biparatopic Nanobody; C-term myc-His6 tag; also called 2B7-35GS-2D3

koff [4]: ~0.001 s⁻¹
B23: 27C3-35GS-2D3 (bispecific antibody)
chain: EVQLVESGGGLVQPGGSLRLSCAASGFTFDDYATSWVRQAPGKGPEWVSAINSGGGSTYYADSVKGRFTISRDNAKNTLYLQMNSLKPEDTAVYYCARPRGSSLYLLEYDYWGQGTQVTVSSGGGGSGGGGSGGGGSGGGGSGGGGSGGGGSGGGGSEVQLVESGGSLVQPGGSLRLSCAASGFTFDDYAMSWVRQVPGKGLEWVSSINWSGTHTDYADSVKGRFTISRNNANNTLYLQMNSLKSEDTAVYYCAKNWRDAGTTWFEKSGSAGQGTQVTVSS
notes: biparatopic Nanobody; C-term myc-His6 tag

koff [4]: ~0.001 s⁻¹
B24: 27H5-35GS-2D3 (bispecific antibody)
chain: EVQLVESGGGLVQAGGSLRLSCAASGFTFDDYGIGWFRQASGKEREGVSCITSSDGSTYYADSVKGRFTISSDNAKNTVYLQMNSLKPEDTAVYYCAALPFVCPSGSYSDYGDEYDYWGQGTQVTVSSGGGGSGGGGSGGGGSGGGGSGGGGSGGGGSGGGGSEVQLVESGGSLVQPGGSLRLSCAASGFTFDDYAMSWVRQVPGKGLEWVSSINWSGTHTDYADSVKGRFTISRNNANNTLYLQMNSLKSEDTAVYYCAKNWRDAGTTWFEKSGSAGQGTQVTVSS
notes: as for B23

koff [4]: ~0.0001 s⁻¹
B25: 27D1-35GS-2D3 (bispecific antibody)
chain: EVQLVESGGGLVQPGGSLRLSCVASGFSLDDYGMTWVRQAPGKGLEWVSSINWSGTHTDYADSVKGRFTISRDNAKNTLFLQMNSLTPEDTAVYYCNQGWKILPAERRGHGTQVTVSSGGGGSGGGGSGGGGSGGGGSGGGGSGGGGSGGGGSEVQLVESGGSLVQPGGSLRLSCAASGFTFDDYAMSWVRQVPGKGLEWVSSINWSGTHTDYADSVKGRFTISRNNANNTLYLQMNSLKSEDTAVYYCAKNWRDAGTTWFEKSGSAGQGTQVTVSS
notes: as for B23
